These results are taken from paper PMC12777564, “Proposal of metagenomic-origin LRA-5 as a precursor of active β-lactamases through Tyr69Gln and Val166Glu amino acid substitutions: a functional and structural analysis” (Antimicrobial Agents and Chemotherapy, 2025).

Where only a bound is given, the exact number is not on record here.

The target in one series is T1, LRA-5 (uncultured bacterium BLR5, UniProt B5L5W7).
T1 construct: gene blaLRA-5
The series is described as follows: biochemical. Also on record: time-dependent inactivation of purified LRA-5 by clavulanate, 100 uM nitrocefin as reporter substrate. The conditions noted are these: wild-type LRA-5. As to the method: For irreversible inhibitors like clavulanic acid, the rate constant of inactivation, kinact, was measured directly by time-dependent inactivation of LRA-5 variants using a fixed concentration of enzyme and 100 µM nitrocefin as reporter and increasing concentrations of the inhibitor. The observed rate constant for inactivation (kobs) was determined by nonlinear least-squares fitting of the data using equation 3, as described elsewhere ([42]). […] This behavior is not entirely striking, as it may be related to the fact that the absence of Glu166 in the wild-type variant could still favor the inhibition of clavulanate, due to the absence of the water molecule that normally “competes” with inhibitors during acylation ([29]). Overnight cultures of recombinant E. coli BL21(DE3) cells expressing wild-type LRA-5 and LRA-5^Y69Q/V166E were diluted (1/50) in 500 mL Lysogeny Broth (LB) supplemented with 30 µg/mL kanamycin and grown at 37°C until 0.6–0.8 OD units (λ = 600 nm) was reached. […] Eluted fractions were analyzed by SDS-PAGE in 15% polyacrylamide gels. […] The protein purity was assessed by Coomassie blue staining on 15% SDS polyacrylamide gels, and protein concentration was determined by UV absorbance at 280 nm and calculated according to the Lambert-Beer law. […]

Series [1] deals with O=C(Cc1cccs1)N[C@@H]1C(=O)N2C(C(=O)O)=C(/C=C/c3ccc([N+](=O)[O-])cc3[N+](=O)[O-])CS[C@H]12. In words: purified protein, by the assay type. The conditions noted are these: pH 7.5. Also on record: steady-state beta-lactam hydrolysis kinetics with purified LRA-5; Km (apparent Km via nitrocefin competition for poor substrates). Here is the method:
(§1) For low Km values, the kcat values were derived by complete hydrolysis time courses as described by De Meester et al. ([41]). For poor substrates that behave as competitive inhibitors, the Ki was obtained by monitoring the residual activity of the enzyme in the presence of various concentrations of the drug and 100 µM nitrocefin as reporter substrate; the corrected Ki (considered the observed or apparent Km) value was finally determined using equation 2: The kinetic parameters of wild-type LRA-5 and its double substituted variant LRA-5^Y69Q/V166E are shown in Table 3. […] This behavior is expected considering that this variant lacks Glu166, which is essential to orient the deacylation water molecule during the regeneration stage of the active site. The exceptions were nitrocefin and, strikingly, cefepime. This behavior deserves more in-depth analysis. […] Overnight cultures of recombinant E. coli BL21(DE3) cells expressing wild-type LRA-5 and LRA-5^Y69Q/V166E were diluted (1/50) in 500 mL Lysogeny Broth (LB) supplemented with 30 µg/mL kanamycin and grown at 37°C until 0.6–0.8 OD units (λ = 600 nm) was reached. At this point, 1 mM isopropyl β-D-thiogalactopyranoside (IPTG) was added, and cultures were resumed for growing overnight at 20°C (200 rpm stirring). Then, cell pellets were obtained after centrifugation at 8,000 rpm for 20 min (4°C) in a Sorvall RC-5C (GS3 rotor) and resuspended in 20 mM Tris buffer (pH 7.5) + 500 mM NaCl (buffer A). Crude extracts were obtained by ultrasonic disruption (9 cycles of 5 min, 40% potency, 20 pulses/min, on ice bath) and clarified by centrifugation at 10,000 rpm for 20 min (4°C, SS34 rotor). Clarified supernatants were filtrated through 0.45 µm pore-size membranes, and loaded onto 5 mL HisTrap HP affinity columns (GE Healthcare Life Sciences, USA), connected to an ÄKTA-purifier (GE Healthcare, Uppsala, Sweden), and equilibrated with buffer A. The column was extensively washed to remove unbound proteins, and the LRA-5 proteins were eluted using a linear gradient (0%–100%; 1 mL/min flow rate) of buffer B consisting of buffer A + 500 mM imidazole (pH 7.5). Eluted fractions were analyzed by SDS-PAGE in 15% polyacrylamide gels. Fractions containing the pure LRA-5 variants were dialyzed against buffer A, and the histidine tag was removed by thrombin digestion (16 h at 25°C), using 10 U thrombin per mg protein for complete proteolysis, and later by affinity purification using 1 mL HisTrap HP columns (GE Healthcare Life Sciences, USA), following the same conditions as before (the pure LRA-5 is recovered in the pass-through, while the His-tag and any uncleaved fractions remain attached to the column). The protein purity was assessed by Coomassie blue staining on 15% SDS polyacrylamide gels, and protein concentration was determined by UV absorbance at 280 nm and calculated according to the Lambert-Beer law. The fractions of purified enzymes were stored at −80°C for subsequent kinetics and crystallographic assays.

The test system of series [2] is CO/N=C(\C(=O)N[C@@H]1C(=O)N2C(C(=O)O)=C(CSc3nc(=O)c(=O)[nH]n3C)CS[C@H]12)c1csc(N)n1. The series is described as follows: purified protein, by the assay type. To be noted: pH 7.5. Also on record: steady-state beta-lactam hydrolysis kinetics with purified LRA-5; Km (apparent Km via nitrocefin competition for poor substrates). Here is the method: as §1
Series [3] relates to C[C@H]1[C@H](NC(=O)/C(=N\OC(C)(C)C(=O)O)c2csc(N)n2)C(=O)N1S(=O)(=O)O. In words: purified protein, by the assay type. More on the design: steady-state beta-lactam hydrolysis kinetics with purified LRA-5; Km (apparent Km via nitrocefin competition for poor substrates). The conditions noted are these: pH 7.5. As to the method:
as §1

The test system of series [4] is CC(=O)OCC1=C(C(=O)O)N2C(=O)[C@@H](NC(=O)Cc3cccs3)[C@H]2SC1. The series is described as follows: purified protein, by the assay type. Also on record: steady-state beta-lactam hydrolysis kinetics with purified LRA-5; Km (apparent Km via nitrocefin competition for poor substrates). To be noted: pH 7.5. As to the method: as §1
Series [5] concerns CC1(C)S[C@@H]2[C@H](NC(=O)[C@H](N)c3ccccc3)C(=O)N2[C@H]1C(=O)O. In words: purified protein, by the assay type. Also on record: steady-state beta-lactam hydrolysis kinetics with purified LRA-5; Km (apparent Km via nitrocefin competition for poor substrates). To be noted: pH 7.5. Here is the method:
as §1

For series [6], the system named is CO/N=C(\C(=O)N[C@@H]1C(=O)N2C(C(=O)[O-])=C(C[N+]3(C)CCCC3)CS[C@H]12)c1csc(N)n1. In words: steady-state hydrolysis kinetics with pure enzyme (Km), no-enzyme control. The format is biochemical, uncultured bacterium BLR5. The source says: steady-state hydrolysis kinetics with pure enzyme (Km), no-enzyme control on LRA-5 | The exceptions were nitrocefin and, strikingly, cefepime.

The test system of series [7] is O=C(Cc1cccs1)N[C@@H]1C(=O)N2C(C(=O)O)=C(/C=C/c3ccc([N+](=O)[O-])cc3[N+](=O)[O-])CS[C@H]12. In words: steady-state hydrolysis kinetics with pure enzyme (Km). In kind it is biochemical, uncultured bacterium BLR5.
For series [8], the system named is C[C@@H](O)[C@H]1C(=O)N2C(C(=O)O)=C(SCCN=CN)C[C@H]12. The series is described as above. In kind it is biochemical, uncultured bacterium BLR5.
Series [9] concerns CO/N=C(\C(=O)N[C@@H]1C(=O)N2C(C(=O)O)=C(CSc3nc(=O)c(=O)[nH]n3C)CS[C@H]12)c1csc(N)n1. The description is as above. The format is biochemical, uncultured bacterium BLR5.
In series [10] the test system is C[C@@H](O)[C@H]1C(=O)N2C(C(=O)O)=C(S[C@@H]3CN[C@H](C(=O)N(C)C)C3)[C@H](C)[C@H]12. The series is described as above. In kind it is biochemical, uncultured bacterium BLR5.
Series [11] concerns CC(=O)OCC1=C(C(=O)O)N2C(=O)[C@@H](NC(=O)Cc3cccs3)[C@H]2SC1. The series is described as above. In kind it is biochemical, uncultured bacterium BLR5.
The subject of series [12] is CC1(C)S[C@@H]2[C@H](NC(=O)[C@H](N)c3ccccc3)C(=O)N2[C@H]1C(=O)O. Described as above. In kind it is biochemical, uncultured bacterium BLR5.

T1 sequence (B5L5W7 entry or part of it): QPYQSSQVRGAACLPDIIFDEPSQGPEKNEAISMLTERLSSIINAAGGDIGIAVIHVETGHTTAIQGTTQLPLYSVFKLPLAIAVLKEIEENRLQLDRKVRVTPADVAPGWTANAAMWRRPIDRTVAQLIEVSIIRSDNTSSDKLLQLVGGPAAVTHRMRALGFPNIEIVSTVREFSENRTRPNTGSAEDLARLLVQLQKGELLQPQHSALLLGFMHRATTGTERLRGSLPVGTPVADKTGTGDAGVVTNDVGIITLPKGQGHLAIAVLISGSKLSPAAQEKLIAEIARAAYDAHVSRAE

Take `O=C(O)[C@H]1/C(=C/CO)O[C@@H]2CC(=O)N21` [Clavulanate]: the kinact at LRA-5 (read-out: LRA-5 (wild-type) / kcat (s^−1) / NH / kinact) amounted to 0.005 ± 0.0001 s⁻¹. Also, the kinact/KI on LRA-5 (read-out: LRA-5 (wild-type) / kcat/Km (M^−1 s^−1) / ND / kinact/K) came to 833 ± 102 M⁻¹ s⁻¹.
Regarding LRA-5 (uncultured bacterium BLR5), the Km in series [1] was determined as 8 ± 2 µM; in [2], 11 ± 2 µM; in series [4], 35 ± 4 µM; in series [5], 65 ± 13 µM; in [6] it was 10.0 ± 0.5 µM. In addition, the kcat in series [1] turned out to be 0.045 ± 0.001 s⁻¹; in [2] it was 3.6e-06 ± 6e-07 s⁻¹; in series [3], 2e-05 ± 3e-06 s⁻¹; in [4] it was 0.005 ± 0.0008 s⁻¹; in series [5], 0.01 ± 0.002 s⁻¹; in series [6], 0.02 ± 0.006 s⁻¹. Moreover, the catalytic efficiency (kcat/Km) in series [1] was 5600 ± 1400 M⁻¹ s⁻¹; in series [2] it was 0.32 ± 0.08 M⁻¹ s⁻¹; in series [3] it was under 0.02 M⁻¹ s⁻¹; in series [4], 143 ± 28 M⁻¹ s⁻¹; in [5] it was 154 ± 44 M⁻¹ s⁻¹; in [6], 2000 ± 100 M⁻¹ s⁻¹.
Consider “LRA-5^Y69Q/V166E (uncultured bacterium BLR5; V199E/Y100Q)”, for which the Michaelis constant (Km) is given as 32 ± 4 µM in series [7]; 3.0 ± 0.1 µM in [8]; 29 ± 9 µM in [9]; 5.0 ± 0.6 µM in series [10]; 14 ± 3 µM in series [11]; 4.0 ± 0.2 µM in series [12]. The kcat stood at 4.8 ± 0.3 s⁻¹ in series [7]; 0.006 ± 0.0002 s⁻¹ in series [8]; 0.107 ± 0.01 s⁻¹ in series [9]; 0.003 ± 0.0007 s⁻¹ in series [10]; 0.025 ± 0.001 s⁻¹ in [11]; 0.002 ± 0.0006 s⁻¹ in series [12]. Besides, the kcat/Km in series [7] was 150000 ± 21000 M⁻¹ s⁻¹; in series [8], 1920 ± 86 M⁻¹ s⁻¹; in series [9], 3690 ± 1200 M⁻¹ s⁻¹; in [10] it was 600 ± 157 M⁻¹ s⁻¹; in [11] it was 1780 ± 389 M⁻¹ s⁻¹; in series [12], 500 ± 152 M⁻¹ s⁻¹.

As a reminder, the Km is the substrate concentration at which the rate is half of its maximum. For orientation: kcat means the number of substrate molecules converted per active site and unit of time at saturation. In general, kcat/Km refers to the second-order rate constant that governs catalysis at low substrate concentration.
